The record followed here is publication PMC2533787 (The Journal of Biological Chemistry, 2008).

Assay [1] addresses Full-length recombinant human TSG-6 (human, UniProt P98066 18-277). The assay can be described thus: SPR.
Assay [2] concerns the target CUB_C_TSG6 (the CUB domain and C-terminal 27 amino acids of human TSG-6) (human, UniProt P98066 129-277). The experiment in a line: SPR.

Chain of Full-length recombinant human TSG-6 (P98066 18-277): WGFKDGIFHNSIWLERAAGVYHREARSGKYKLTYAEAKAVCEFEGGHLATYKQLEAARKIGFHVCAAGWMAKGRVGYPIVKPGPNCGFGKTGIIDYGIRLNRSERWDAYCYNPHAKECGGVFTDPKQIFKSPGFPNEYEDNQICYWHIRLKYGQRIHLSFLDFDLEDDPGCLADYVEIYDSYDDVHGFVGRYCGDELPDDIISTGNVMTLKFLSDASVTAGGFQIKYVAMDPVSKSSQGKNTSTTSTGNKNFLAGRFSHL
Chain of CUB_C_TSG6 (the CUB domain and C-terminal 27 amino acids of human TSG-6) (P98066 129-277): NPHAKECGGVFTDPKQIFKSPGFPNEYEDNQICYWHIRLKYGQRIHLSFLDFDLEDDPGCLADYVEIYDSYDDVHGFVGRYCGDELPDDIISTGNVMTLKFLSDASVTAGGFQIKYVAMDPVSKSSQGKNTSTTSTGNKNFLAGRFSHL

B1: soluble receptor activator of NF-κB ligand (ligand, UniProt O14788 140-317, looked up)
chain: IRAEKAMVDGSWLDLAKRSKLEAQPFAHLTINATDIPSGSHKVSLSSWYHDRGWAKISNMTFSNGKLIVNQDGFYYLYANICFRHHETSGDLATEYLQLMVYVTKTSIKIPSSHTLMKGGSTKYWSGNSEFHFYSINVGGFFKLRSGEEISIEVSNPSLLDPDQDATYFGAFKVRDID
B1: the Kd in assay [1] was 1.97 µM.

B2: bone morphogenetic protein-2 (ligand, UniProt P12643 283-396, looked up)
chain: QAKHKQRKRLKSSCKRHPLYVDFSDVGWNDWIVAPPGYHAFYCHGECPFPLADHLNSTNHAIVQTLVNSVNSKIPKACCVPTELSAISMLYLDENEKVVLKNYQDMVVEGCGCR
As to B2, the Kd in assay [1] was 0.22 µM; in assay [2], 2.54 µM.

B3: BMP-14 (ligand, UniProt P43026 382-501, looked up)
chain: APLATRQGKRPSKNLKARCSRKALHVNFKDMGWDDWIIAPLEYEAFHCEGLCEFPLRSHLEPTNHAVIQTLMNSMDPESTPPTCCVPTRLSPISILFIDSANNVVYKQYEDMVVESCGCR
In the case of B3, the results for the Kd in assay [1] and in assay [2] were 0.184 µM and 10.8 µM, respectively.

B4: BMP-13 (ligand, UniProt Q6KF10 336-455, looked up)
chain: TAFASRHGKRHGKKSRLRCSKKPLHVNFKELGWDDWIIAPLEYEAYHCEGVCDFPLRSHLEPTNHAIIQTLMNSMDPGSTPPSCCVPTKLTPISILYIDAGNNVVYKQYEDMVVESCGCR
For the molecule B4, the dissociation constant Kd is 0.236 µM in assay [1] and 6.88 µM in assay [2].
